Experiment [1] concerns the target T1, Disabled-1 (Dab1), two-hybrid prey in pB42AD (UniProt P97318-2 1-555).
T1 sequence (looked up): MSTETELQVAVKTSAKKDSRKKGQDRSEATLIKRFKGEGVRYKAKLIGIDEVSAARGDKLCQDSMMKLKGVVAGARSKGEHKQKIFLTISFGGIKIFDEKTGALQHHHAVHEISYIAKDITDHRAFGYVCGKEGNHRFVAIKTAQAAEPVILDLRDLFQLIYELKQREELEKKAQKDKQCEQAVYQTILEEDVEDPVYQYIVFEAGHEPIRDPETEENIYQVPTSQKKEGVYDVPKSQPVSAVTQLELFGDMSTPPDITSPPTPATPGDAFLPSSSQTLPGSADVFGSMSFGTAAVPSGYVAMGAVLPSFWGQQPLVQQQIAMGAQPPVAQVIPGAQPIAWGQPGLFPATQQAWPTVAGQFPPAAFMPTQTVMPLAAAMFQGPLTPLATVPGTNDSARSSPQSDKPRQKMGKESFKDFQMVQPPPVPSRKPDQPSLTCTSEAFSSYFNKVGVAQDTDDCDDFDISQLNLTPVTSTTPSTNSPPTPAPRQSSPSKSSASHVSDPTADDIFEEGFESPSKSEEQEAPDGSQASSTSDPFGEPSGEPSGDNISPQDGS
Briefly: yeast two-hybrid, LexA tail bait against B42AD-Dab1. How it is done: All LDL receptor family cytoplasmic tail LexA fusion proteins were constructed using the pLexA vector ([…] system, CLONTECH). […] PCR products were subcloned into the EcoRI and NcoI sites of pLexA for the Megalin and VLDL Receptor, and into EcoRI and BarnHI sites for the other receptors. […] All constructs were sequenced after cloning, and all bait vectors were tested for self-activation. Bait and prey vectors were cotransfected into yeast cells (leucine auxotrophic strain EGY48) using the LiAc method as described in the […] manual (CLONTECH). The two-hybrid assay used two reporters (LEU2 and lacZ) under the control of LexA operators. Cells were spread on selective plates (His-;Leu-;Trp-) and grown for 3 days. Single clones were grown on selective plates in patches and harvested after 2–3 days. To recover DNA from yeast, cells were resuspended in 50 μl STES (0.5M NaCl, 0.2M Tris-HCl pH 7.6, 0.01M EDTA, 1% SDS). Glass beads were added and the cells vortexed vigorously. After addition of 20 μl H2O and 60 μl phenol/chloroform cells were vortexed for 1 more minute and centrifuged (14,000×g, 5 min). The aqueous phase was collected and the DNA was precipitated with EtOH. DNA from positive clones was retransformed into DH5α and checked by DNA sequencing. Yeast mating was performed after transformation of LexA plasmids into the yeast strain YM4271 following the instructions in the […] manual (CLONTECH).
(§1) The ApoER2 tail was tested with (+) and without (−) its alternatively spliced insert. For Megalin and for LRP the complete tails and parts thereof containing a single NPxY motif were tested separately.

Another experiment concerns the target T2, PSD-95 (mouse, UniProt Q62108 1-724).
T2 construct: Yeast two-hybrid prey clone; also called postsynaptic density-95; postsynaptic density protein PSD-95
Briefly: yeast two-hybrid, LexA tail bait against prey. As to the method: (§2) PCR products were subcloned into the EcoRI and NcoI sites of pLexA for the Megalin and VLDL Receptor, and into EcoRI and BarnHI sites for the other receptors. […] All constructs were sequenced after cloning, and all bait vectors were tested for self-activation. Bait and prey vectors were cotransfected into yeast cells (leucine auxotrophic strain EGY48) using the LiAc method as described in the […] manual (CLONTECH). The two-hybrid assay used two reporters (LEU2 and lacZ) under the control of LexA operators. Cells were spread on selective plates (His-;Leu-;Trp-) and grown for 3 days. Single clones were grown on selective plates in patches and harvested after 2–3 days. To recover DNA from yeast, cells were resuspended in 50 μl STES (0.5M NaCl, 0.2M Tris-HCl pH 7.6, 0.01M EDTA, 1% SDS). Glass beads were added and the cells vortexed vigorously. After addition of 20 μl H2O and 60 μl phenol/chloroform cells were vortexed for 1 more minute and centrifuged (14,000×g, 5 min). The aqueous phase was collected and the DNA was precipitated with EtOH. DNA from positive clones was retransformed into DH5α and checked by DNA sequencing. Yeast mating was performed after transformation of LexA plasmids into the yeast strain YM4271 following the instructions in the […] manual (CLONTECH).
as §1

Another experiment concerns the target T3, JIP-1 (mouse, UniProt Q9WVI9 1-707).
T3 construct: Yeast two-hybrid prey clone; also called meg11
T3 sequence: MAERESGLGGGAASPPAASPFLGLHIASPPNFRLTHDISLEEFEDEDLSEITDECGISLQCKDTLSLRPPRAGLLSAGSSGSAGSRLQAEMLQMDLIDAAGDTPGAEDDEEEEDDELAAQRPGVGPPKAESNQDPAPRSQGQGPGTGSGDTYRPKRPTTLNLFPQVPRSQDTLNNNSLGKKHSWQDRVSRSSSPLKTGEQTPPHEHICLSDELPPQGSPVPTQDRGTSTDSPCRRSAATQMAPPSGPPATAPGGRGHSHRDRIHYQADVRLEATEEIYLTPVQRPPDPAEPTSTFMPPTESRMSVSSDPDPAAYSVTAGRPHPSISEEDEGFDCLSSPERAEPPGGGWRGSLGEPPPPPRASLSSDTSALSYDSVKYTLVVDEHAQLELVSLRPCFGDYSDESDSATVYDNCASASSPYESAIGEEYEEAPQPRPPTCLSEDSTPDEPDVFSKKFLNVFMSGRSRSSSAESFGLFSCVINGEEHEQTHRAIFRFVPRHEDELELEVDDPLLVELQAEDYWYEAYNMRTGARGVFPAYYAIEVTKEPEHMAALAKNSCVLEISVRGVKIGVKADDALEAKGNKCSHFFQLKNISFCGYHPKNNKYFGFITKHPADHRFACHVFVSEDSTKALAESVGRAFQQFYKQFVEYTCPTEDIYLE
Briefly: yeast two-hybrid, LexA tail bait against prey. As to the method: as §2, §1

Data on five molecules can be found in US6428967 (University of Texas, dated 2002).

T2 sequence (Q62108 whole entry): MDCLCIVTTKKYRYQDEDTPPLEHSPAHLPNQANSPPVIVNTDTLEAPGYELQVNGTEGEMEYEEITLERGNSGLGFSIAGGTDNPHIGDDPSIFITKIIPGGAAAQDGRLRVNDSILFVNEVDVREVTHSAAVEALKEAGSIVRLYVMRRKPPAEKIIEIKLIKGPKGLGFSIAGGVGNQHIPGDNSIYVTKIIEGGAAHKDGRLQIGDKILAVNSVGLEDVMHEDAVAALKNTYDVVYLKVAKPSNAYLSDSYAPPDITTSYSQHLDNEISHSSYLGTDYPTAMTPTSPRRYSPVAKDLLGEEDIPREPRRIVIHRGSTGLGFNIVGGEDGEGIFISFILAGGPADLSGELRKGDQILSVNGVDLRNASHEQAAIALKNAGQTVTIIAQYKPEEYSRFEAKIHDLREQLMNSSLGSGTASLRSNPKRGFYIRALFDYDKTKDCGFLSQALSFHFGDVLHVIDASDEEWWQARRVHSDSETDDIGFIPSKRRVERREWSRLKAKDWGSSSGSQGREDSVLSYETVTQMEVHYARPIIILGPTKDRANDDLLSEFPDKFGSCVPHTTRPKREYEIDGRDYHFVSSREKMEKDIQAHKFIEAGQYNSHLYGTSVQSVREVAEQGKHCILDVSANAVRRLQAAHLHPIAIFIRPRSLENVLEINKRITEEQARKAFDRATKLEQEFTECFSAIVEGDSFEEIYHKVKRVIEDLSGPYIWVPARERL

B1: MegC, part of the Megalin cytoplasmic tail, LexA fusion protein (MegC human) (receptor, not shown: large carriers)
chain: GSPINPSEIVPETNPTSPAADGTQVTKWNLFKRKSKQTTNFENPIYAQMENEQKESVAATPPPSPSLPAKPKPPSRRDPTPTYSATEDTFKDTANLVKEDSEV
notes: LexA fusion bait of the two-hybrid assay
For the molecule B1, the binding result in experiment [1] is listed as “no binding”.

B2: LRPA, part of the LRP cytoplasmic tail, LexA fusion protein (LRPA human) (receptor, not shown: large carriers)
chain: VQGAKGFQHQRMTNGAMNVEIGNPTYKMYEGGEPDDVG
notes: as for B1
B2: the binding result in experiment [1] was “no binding”.

B3: MegB, part of the Megalin cytoplasmic tail, LexA fusion protein (MegB human) (receptor, not shown: small tags and cut ends)
chain: SARDSAVKVVQPIQVTVSENVDNKNYGSPINPSEIVPETNPTSPAADGTQVTKWNLFKRKSKQTTNFE
notes: WARNING: the listing's entry 129 (76 residues) begins like the LRP entries 130 and 132, while entry 131 (68 residues) is a stretch of the Megalin entry 127; entries 129 and 131 look exchanged, so MegB is probably entry 131
For the molecule B3, the binding result in experiment [1] was “no binding”.

B4: ApoER2 cytoplasmic tail with its alternatively spliced insert, LexA fusion protein (ApoER2+ mouse) (receptor, not shown: large carriers)
chain: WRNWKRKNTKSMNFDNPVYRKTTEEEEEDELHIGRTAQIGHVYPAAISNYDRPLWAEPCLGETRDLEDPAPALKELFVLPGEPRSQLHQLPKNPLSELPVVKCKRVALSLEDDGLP
notes: LexA fusion bait of the two-hybrid assay; also called the ApoER2 tail containing the alternatively spliced insert
Turning to B4, in the experiment with PSD-95, the binding result is “binds”.

B5: ApoER2 cytoplasmic tail without its alternatively spliced insert, LexA fusion protein (ApoER2- mouse) (receptor, not shown: large carriers)
chain: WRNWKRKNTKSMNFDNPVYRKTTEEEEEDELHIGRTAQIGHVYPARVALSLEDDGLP
notes: LexA fusion bait of the two-hybrid assay; also called the tail without this insert
In the case of B5, the binding result in the experiment with PSD-95 and with JIP-1 was “no binding” throughout.
